Data taken from the MegaScale stability set (Tsuboyama et al. 2023).

B1: EEHEE_rd4_0003 (parent)
chain: KKVTINGVEIKFNNPEEAVKFALELAKRLNLRIEFHGDQIKIE

Variants of: B1
Assay: folding stability dG (cDNA display proteolysis); higher = more stable
Conditions: PBS, room temperature

In order of rising “folding stability dG” value:
1. KKVTINGVEIKENNPEEAVKFALELAKRLNLRIEFHGDQIKIE [F12E]  0.907 kcal/mol
2. KKVTINGVEIKDNNPEEAVKFALELAKRLNLRIEFHGDQIKIE [F12D]  0.955 kcal/mol
3. KKVTINGVEIKKNNPEEAVKFALELAKRLNLRIEFHGDQIKIE [F12K]  1.09 kcal/mol
4. KKVTINGVEIKQNNPEEAVKFALELAKRLNLRIEFHGDQIKIE [F12Q]  1.13 kcal/mol
5. KKVTINGVEIKPNNPEEAVKFALELAKRLNLRIEFHGDQIKIE [F12P]  1.14 kcal/mol
6. KKVTINGVEPKFNNPEEAVKFALELAKRLNLRIEFHGDQIKIE [I10P]  1.19 kcal/mol
7. KKVTINGVEGKFNNPEEAVKFALELAKRLNLRIEFHGDQIKIE [I10G]  1.21 kcal/mol
8. KKVTINGVEDKFNNPEEAVKFALELAKRLNLRIEFHGDQIKIE [I10D]  1.28 kcal/mol
9. KKVTINGVEIKNNNPEEAVKFALELAKRLNLRIEFHGDQIKIE [F12N]  1.33 kcal/mol
10. KKVTINGVEEKFNNPEEAVKFALELAKRLNLRIEFHGDQIKIE [I10E]  1.36 kcal/mol
11. KKVTINGVEIKRNNPEEAVKFALELAKRLNLRIEFHGDQIKIE [F12R]  1.41 kcal/mol
12. KKVTINGVEIKHNNPEEAVKFALELAKRLNLRIEFHGDQIKIE [F12H]  1.45 kcal/mol
13. KKVTINGVEIKANNPEEAVKFALELAKRLNLRIEFHGDQIKIE [F12A]  1.48 kcal/mol
14. KKVTINGVENKFNNPEEAVKFALELAKRLNLRIEFHGDQIKIE [I10N]  1.5 kcal/mol
15. KKVTINGVEIKGNNPEEAVKFALELAKRLNLRIEFHGDQIKIE [F12G]  1.55 kcal/mol
16. KKVTINGVEIKSNNPEEAVKFALELAKRLNLRIEFHGDQIKIE [F12S]  1.57 kcal/mol
17. KKVTINGVESKFNNPEEAVKFALELAKRLNLRIEFHGDQIKIE [I10S]  1.6 kcal/mol
18. KKVTINGVEAKFNNPEEAVKFALELAKRLNLRIEFHGDQIKIE [I10A]  1.65 kcal/mol
19. KKVTINGVEQKFNNPEEAVKFALELAKRLNLRIEFHGDQIKIE [I10Q]  1.65 kcal/mol
20. KKVTINGVEIKTNNPEEAVKFALELAKRLNLRIEFHGDQIKIE [F12T]  1.7 kcal/mol
21. KKVTINGVETKFNNPEEAVKFALELAKRLNLRIEFHGDQIKIE [I10T]  1.78 kcal/mol
22. KKVTINGVEKKFNNPEEAVKFALELAKRLNLRIEFHGDQIKIE [I10K]  1.83 kcal/mol
23. KKVTINGVEIKVNNPEEAVKFALELAKRLNLRIEFHGDQIKIE [F12V]  1.86 kcal/mol
24. KKVTINGVERKFNNPEEAVKFALELAKRLNLRIEFHGDQIKIE [I10R]  1.88 kcal/mol
25. KKVTINGVEIKYNNPEEAVKFALELAKRLNLRIEFHGDQIKIE [F12Y]  1.89 kcal/mol
26. KKVTINGVEIKINNPEEAVKFALELAKRLNLRIEFHGDQIKIE [F12I]  1.9 kcal/mol
27. KKVTINGVEIKLNNPEEAVKFALELAKRLNLRIEFHGDQIKIE [F12L]  1.92 kcal/mol
28. KKVTINGVEIKMNNPEEAVKFALELAKRLNLRIEFHGDQIKIE [F12M]  1.96 kcal/mol
29. KKVTINGVEIKWNNPEEAVKFALELAKRLNLRIEFHGDQIKIE [F12W]  2.14 kcal/mol
30. KKVTINGVEVKFNNPEEAVKFALELAKRLNLRIEFHGDQIKIE [I10V]  2.22 kcal/mol
31. KKVTINGVEIPFNNPEEAVKFALELAKRLNLRIEFHGDQIKIE [K11P]  2.22 kcal/mol
32. KKVTINGVEIGFNNPEEAVKFALELAKRLNLRIEFHGDQIKIE [K11G]  2.28 kcal/mol
33. KKVTINGVEIDFNNPEEAVKFALELAKRLNLRIEFHGDQIKIE [K11D]  2.3 kcal/mol
34. KKVTINGVEMKFNNPEEAVKFALELAKRLNLRIEFHGDQIKIE [I10M]  2.36 kcal/mol
35. KKVTINGVEHKFNNPEEAVKFALELAKRLNLRIEFHGDQIKIE [I10H]  2.49 kcal/mol
36. KKVTINGVEWKFNNPEEAVKFALELAKRLNLRIEFHGDQIKIE [I10W]  2.55 kcal/mol
37. KKVTINGVYIKFNNPEEAVKFALELAKRLNLRIEFHGDQIKIE [E9Y]  2.58 kcal/mol
38. KKVTINGVELKFNNPEEAVKFALELAKRLNLRIEFHGDQIKIE [I10L]  2.6 kcal/mol
39. KKVTINGVEIAFNNPEEAVKFALELAKRLNLRIEFHGDQIKIE [K11A]  2.6 kcal/mol
40. KKVTINGVEIQFNNPEEAVKFALELAKRLNLRIEFHGDQIKIE [K11Q]  2.72 kcal/mol
41. KKVTINGVEISFNNPEEAVKFALELAKRLNLRIEFHGDQIKIE [K11S]  2.72 kcal/mol
42. KKVTINGVWIKFNNPEEAVKFALELAKRLNLRIEFHGDQIKIE [E9W]  2.73 kcal/mol
43. KKVTINGVEIEFNNPEEAVKFALELAKRLNLRIEFHGDQIKIE [K11E]  2.77 kcal/mol
44. KKVTINGVEIRFNNPEEAVKFALELAKRLNLRIEFHGDQIKIE [K11R]  2.78 kcal/mol
45. KKVTINGVEINFNNPEEAVKFALELAKRLNLRIEFHGDQIKIE [K11N]  2.83 kcal/mol
46. KKVTINGVEITFNNPEEAVKFALELAKRLNLRIEFHGDQIKIE [K11T]  2.85 kcal/mol
47. KKVTINGVEFKFNNPEEAVKFALELAKRLNLRIEFHGDQIKIE [I10F]  2.89 kcal/mol
48. KKVTINGVEIVFNNPEEAVKFALELAKRLNLRIEFHGDQIKIE [K11V]  2.96 kcal/mol
49. KKVTINGVEYKFNNPEEAVKFALELAKRLNLRIEFHGDQIKIE [I10Y]  2.99 kcal/mol
50. KKVTINGVEIMFNNPEEAVKFALELAKRLNLRIEFHGDQIKIE [K11M]  2.99 kcal/mol
51. KKVTINGVEIIFNNPEEAVKFALELAKRLNLRIEFHGDQIKIE [K11I]  3 kcal/mol
52. KKVTINGVEILFNNPEEAVKFALELAKRLNLRIEFHGDQIKIE [K11L]  3.02 kcal/mol
53. KKVTINGVEIHFNNPEEAVKFALELAKRLNLRIEFHGDQIKIE [K11H]  3.03 kcal/mol
54. KKVTINGVEIKCNNPEEAVKFALELAKRLNLRIEFHGDQIKIE [F12C]  3.25 kcal/mol
55. KKVTINGVEIFFNNPEEAVKFALELAKRLNLRIEFHGDQIKIE [K11F]  3.26 kcal/mol
56. KKVTINGVEIYFNNPEEAVKFALELAKRLNLRIEFHGDQIKIE [K11Y]  3.32 kcal/mol
57. KKVTINGVECKFNNPEEAVKFALELAKRLNLRIEFHGDQIKIE [I10C]  3.45 kcal/mol
58. KKVTINGVEIWFNNPEEAVKFALELAKRLNLRIEFHGDQIKIE [K11W]  3.53 kcal/mol
59. KKVTINGVEICFNNPEEAVKFALELAKRLNLRIEFHGDQIKIE [K11C]  3.94 kcal/mol
